Laboratory results from patent US20080311122A1, “Antagonists of Hmgb1 and/or Rage and Methods of Use Thereof” (Medimmune, LLC, priority 2005, published 2008).
Read-outs that look alike come from different tables or passages of the source.

Tests used:
mouse macrophages = assay: TNF-a induction in mouse macrophages; format: cell-based
Protocol: TNF-a Induction: To examine mRNA levels macrophages were derived from mouse bone marrow using M-CSF. Macrophages were then stimulated by LPS, E. coli produced recombinant HMGB1 or HMGB1 purified from bovine thymus for indicated length of time and mRNA is measured by Taqman. To examine protein levels thioglycant activated mouse peritoneal macrophages were stimulated with 10 μg/mL of HMGB1 purified from bovine thymus or recombinant HMGB1 generated from E. coli for 24 hr. Cytokines in the supernatant were measured by ELISA.

AM14 B cells = assay: AM14 proliferation assay; format: cell-based, mouse; settings: for inhibition of DNA immune complex (PL2-3) dependent proliferation of AM14 B cells: thymidine incorporation
Protocol: AM14 proliferation assay: Purified AM14 B cells were preincubated with RAGE-Fc or control human IgG1 for 30 min at 37° C., and stimulated with 0.1 μg/ml of PL2-3 for 24 h at 37° C. Cells were then pulsed with [^3H]thymidine for 6 h.

[1] = tested on: CpG2216+thymus HMG1 induced IFN-a release (TLR9 signaling); assay: Inhibition of HMG1 mediated enhancement of TLR9 signaling, CpG2216 + thymus HMG1 in bone marrow cells; format: cell-based; settings: mouse bone marrow cells
Protocol: HMGB1+TLR Ligand: Freshly isolated bone marrow cells were stimulated with TLR ligands (TLR3:PolyIC@5 μg/mL; TLR4:LPS@2.5 ng/mL; TLR5:flagellin@0.25 μg/mL; TLR7:polyU@4 μg/mL or R837@5 μg/mL; TLR9:CpG2216@1 μM) with or without presence of thymus HMGB1 (10 μg/mL) for 24 hr. Cytokines in the supernatant were measured by ELISA.
Inhibition of HMG1 Mediated Enhancement of TLR Signaling: Freshly isolated bone marrow cells were stimulated with TLR9 ligand CpG2216 (0.3 μM) and thymus HMGB1 (10 μg/mL) in the presence of different concentration of the anti-HMGB1 mAb E11 or control human IgG for 24 hr and IFN-a in the supernatant was measured by ELISA. CpG2216, HMGB1 and nonstimulatory DNA were used alone or in combination as controls for the assay.

[2] = molecular target: T1, interaction of CpG and HMGB1 (Bos taurus, UniProt P10103); assay: CpG ELISA, HMGB1 binding to CpG
T1 construct: from tissue; host or cells: bovine thymus
T1 sequence (P10103 2-215 limits assumed): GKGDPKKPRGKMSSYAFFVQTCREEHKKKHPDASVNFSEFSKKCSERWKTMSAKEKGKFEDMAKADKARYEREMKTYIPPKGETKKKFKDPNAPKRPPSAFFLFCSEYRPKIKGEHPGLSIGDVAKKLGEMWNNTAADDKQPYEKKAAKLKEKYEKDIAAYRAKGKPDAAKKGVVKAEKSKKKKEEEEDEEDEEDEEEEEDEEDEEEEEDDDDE
Protocol: CpG ELISA: Proteins or peptides were diluted in PBS to the concentration of 5 μg/ml and coated onto plates at 4° C. o/n. Plates were blocked with 4% dry milk in PBS. Biotin labeled CpG-A alone or in complex with HMGB1 were incubated in the plates at 37° C. for 1 hr. and detected with HRP labeled strep-avidin.

[3] = tested on: HMG1 stimulated cytokine gene expression in mouse macrophages; assay: Taqman analysis of mouse macrophages (mMØ) stimulated with HMG1; format: cell-based; settings: rHMG1
Protocol: Taqman Analysis of Mouse Macrophages (mMØ) Stimulated with HMG1: Mouse bone marrow was harvested by rinsing the femurs of normal C57BL/6 mice. The isolated bone marrow cells were then cultured in Dulbecco's modified Eagle's medium (DMEM) supplemented with 10% fetal bovine serum (FBS) and 50 ng/ml M-CSF for 24 h, nonadherent cells were collected and grown for 6 days in complete DMEM supplemented with 10% FBS and 50 ng/ml M-CSF in T-75 flasks (1×10^7 cells/15 ml/flask). On day 6, adherent cells were harvested and reseeded with 5 ng/ml MCSF in α-MEM containing 10% FBS in 96-well plates (1×10^5 cells/200 μl/well) overnight.
The culture medium was replaced with α-MEM and incubated for 2 hours before stimulation to starve cells. HMGB1 (recombinant CBP-HMGB1 fusion protein generated from E. coli at 10 μg/ml), mouse-RAGE-Fc or human-RAGE-Fc fusion protein were pre-mixed with various blocking reagents at 100 μg/ml in α-MEM for 20 min at RT, then 100 μl of the mixtures was added to the cells and incubated at 37° C. for 2 hours. The supernatant was then removed, and the RNA was extracted using Ambion's MagMAX™-96 Total RNA Isolation Kit. All of the recovered RNA were used in a reverse transcriptase (RT) reaction with SuperScript™ III and oligo(dT) primer (Invitrogen) for synthesis of cDNA. 1 μl or 2 μl of the resulting cDNA was used for real time quantitative PCR analysis (TaqMan) using ABI Prism 7700 or 7000.

B1: rHMG1: E. coli produced recombinant HMG1 (CBP fusion protein) (protein)
chain: MGKGDPKKPRGKMSSYAFFVQTCREEHKKKHPDASVNFSEFSKKCSERWKTMSAKEKGKFEDMAKADKARYEREMKTYIPPKGETKKKFKDPNAPKRPPSAFFLFCSEYRPKIKGEHPGLSIGDVAKKLGEMWNNTAADDKQPYEKKAAKLKEKYEKDIAAYRAKGKPDAAKKGVVKAEKSKKKKEEEEDEEDEEDEEEEEDEEDEDEEEDDDDE
modifications: left off: small tags and cut ends
With B1 the “induction of TNF-a mRNA levels” value (mouse macrophages; 2 hours) was ~43 fold and the “increase in TNF-a protein levels” value (mouse macrophages; 24 hours, supernatant) was ~10 fold.

B2: A-box: synthesized HMGB1 A-box peptide (SEQ ID NO: 108), a known HMGB1 antagonist (peptide, listed as Homo sapiens)
chain: PRGKMSSYAFFVQTCREEHKKKHPDASVNFSEFSKKCSERWKTMSAKEKGKFEDMAKADKARYEREMKTYIPPKGET
For B2, the “effect on TLR2, TLR4 ligand induced proliferation or BCR mediated B cell activation” value (AM14 B cells) was “had no effect”, the “inhibition of DNA immune complex (PL2-3) dependent proliferation of AM14 B cells” value (AM14 B cells; listed as A box antagonist) was “reduced proliferation” and the “inhibition of DNA immune complex (PL2-3) dependent proliferation of AM14 B cells” value (AM14 B cells; listed as HMGB A box) was “markedly inhibited PL2-3-dependent proliferation of AM14 B cells”. The “inhibition of IFN-a release induced by CpG + thymus HMG1” value [1] was “inhibit IFN-a release”, the “inhibition of IFN-a release induced by CpG + thymus HMG1” value ([1]; listed as HMGB1 A-box) was “did not show inhibition in this assay” and the “inhibition of the interaction of CpG and HMGB1” value [2] was “inhibit the interaction of CpG and HMGB1”. The “inhibition of the interaction of CpG and HMGB1” value ([2]; listed as A box HMGB1) was “prevented the binding of HMGB1 to CpG DNA”.

B3: mouse RAGE-Fc fusion protein: mouse RAGE-Fc fusion protein (protein)
chain: QNITARIGEPLVLSCKGAPKKPPQQLEWKLNTGRTEAWKVLSPQGGPWDSVARILPNGSLLLPATGIVDEGTFRCRATNRRGKEVKSNYRVRVYQIPGKPEIVDPASELTASVPNKVGTCVSEGSYPAGTLSWHLDGKLLIPDGKETLVKEETRRHPETGLFTLRSELTVIPTQGGTHPTFSCSFSLGLPRRRPLNTAPIQLRVREPGPPEGIQLLVEPEGGIVAPGGTVTLTCAISAQPPPQVHWIKDGAPLPLAPSPVLLLPEVGHEDEGTYSCVATHPSHGPQESPPVSIRVTETGDEGPAEGSVGESGLGTLALA
modifications: left off: a dimerising Fc or GST
With B3 the “inhibition of HMG1-induced IL-1β gene expression” value [3] was “robustly inhibited” and the “inhibition of HMG1-induced TNF-a gene expression” value [3] was “robustly inhibited”.
